Data reported in US20210324089A1 (ACCELERON PHARMA, published 2021).

Biological target: T1, human ALK7-Fc comprising protein (human, UniProt Q8NER5 22-113, limits assumed)
T1 construct: The wording 'ALK7-Fc comprising protein' leaves open whether further chains are present; also called human ALK7-Fe comprising protein; not shown: Fc portion
T1 sequence: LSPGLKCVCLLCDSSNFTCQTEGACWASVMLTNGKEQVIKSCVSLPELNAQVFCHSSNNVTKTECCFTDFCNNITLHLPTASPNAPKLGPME
Experiment: SPR (Biacore T100/T200); antibody captured on FAB chip, ALK7-Fc comprising protein as analyte; 1:1 fit
Experimental: Experiments were performed using a Biacore T100/T200 biosensor (Biacore/GE Healthcare) at 25 and 37° C. ALK7 antibodies were captured on custom made FAB chip. A concentration series of ALK7-Fc comprising protein was injected over the flow cells at a flow rate of […]. To obtain kinetic rate constants the corrected data were fit to a 1:1 interaction model using BiaEvaluation software (GE Healthcare). The equilibrium binding constant KD was determined by the ratio of binding rate constants kd/ka.

B1: L01 (antibody, V domains shown)
VH: QVQLVQSGAEVKKPGSSVKVSCKASGGTFSSYAISWVRQAPGQGLEWMGSIIPIFGTANYAQKFQGRVTITADESTSTAYMELSSLRSEDTAVYYCARDPVGARYEVFDYWGQGTLVTVSS
VL: EIVMTQSPATLSVSPGERATLSCRASQSVSSNLAWYQQKPGQAPRLLIYSASTRATGIPARFSGSGSGTEFTLTISSLQSEDFAVYYCQQANTFPLTFGGGTKVEIK
notes: Human IgG from yeast libraries; also called LOL
B1 was tested, and the koff was 0.000367 s⁻¹.
